Assay results from paper PMC8383480.

Target: peptide probe (designed thiol-sensitive probe mimicking the substrate of the main protease)
Assay: SPR

With “main protease of SARS-Cov-2 (from UniProt P0DTD1) (enzyme)” the koff was 0.182 s⁻¹ and the kon was 1.03e+08 M⁻¹ s⁻¹.
